As a reminder, the Kd is a measure of binding affinity in units of concentration. High values mean weaker binding, low ones tighter binding.

For one molecule, Kd results are on record in PMC8660799, “Cryo-EM reveals unique structural features of the FhuCDB Escherichia coli ferrichrome importer” (Communications Biology, 2021).

Assay in all cases: MST; 40 nM FhuCB (wild type or FhuB mutant) in detergent, His-tag labelled with red-tris-NTA 2nd generation dye; serial dilution of 1.6 μM FhuD with substrate ferrichrome; with ATP-Mg; Monolith NT.115pico, 20% LED power, medium MST power
Conditions in all cases: both partners purified

In one assay the target is T1, FhuCB with FhuB R390A (Escherichia coli, UniProt P07821 1-265; P06972 1-660, R390A, red-tris-NTA 2nd generation dye on the His-tag).
T1 construct: FhuC, ATPase subunit, Escherichia coli; as in Dm2; FhuB, membrane subunit, Escherichia coli, 660 residues; Mutant made on the FhuCB-pET15b construct by direct mutagenesis; source: E. coli BL21(DE3) C43, purified (TALON, Superose 6 gel filtration) in LMNG; not shown: His-tag, N-terminal, kept; copies: 2 + 1
T1 sequence (looked up) 1: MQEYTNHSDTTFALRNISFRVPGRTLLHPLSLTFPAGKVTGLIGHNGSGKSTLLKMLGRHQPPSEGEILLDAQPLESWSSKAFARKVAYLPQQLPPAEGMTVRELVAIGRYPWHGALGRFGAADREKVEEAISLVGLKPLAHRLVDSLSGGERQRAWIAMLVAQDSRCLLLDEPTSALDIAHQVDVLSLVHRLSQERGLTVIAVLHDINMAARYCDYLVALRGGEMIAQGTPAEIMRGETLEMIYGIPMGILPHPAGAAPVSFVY
T1 sequence (looked up) 2: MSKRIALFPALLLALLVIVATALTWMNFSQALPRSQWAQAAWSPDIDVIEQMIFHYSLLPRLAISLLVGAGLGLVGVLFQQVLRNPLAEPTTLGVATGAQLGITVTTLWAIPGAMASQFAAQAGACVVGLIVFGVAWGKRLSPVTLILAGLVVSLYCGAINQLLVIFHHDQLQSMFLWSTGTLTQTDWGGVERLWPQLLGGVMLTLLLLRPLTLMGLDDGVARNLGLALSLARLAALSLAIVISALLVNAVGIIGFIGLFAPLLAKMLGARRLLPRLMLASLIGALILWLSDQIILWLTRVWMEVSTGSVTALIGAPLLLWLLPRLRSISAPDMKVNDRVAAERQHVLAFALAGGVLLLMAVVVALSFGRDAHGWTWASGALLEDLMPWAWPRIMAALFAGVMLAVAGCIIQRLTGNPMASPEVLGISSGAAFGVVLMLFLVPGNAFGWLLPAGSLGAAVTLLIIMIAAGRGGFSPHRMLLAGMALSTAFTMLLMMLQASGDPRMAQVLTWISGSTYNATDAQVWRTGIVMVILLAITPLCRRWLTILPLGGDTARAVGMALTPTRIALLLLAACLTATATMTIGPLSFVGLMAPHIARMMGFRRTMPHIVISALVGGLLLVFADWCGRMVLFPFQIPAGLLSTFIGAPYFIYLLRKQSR

The target in another assay is T2, FhuCB with FhuB S57A (Escherichia coli, UniProt P07821 1-265; P06972 1-660, S57A, red-tris-NTA 2nd generation dye on the His-tag).
T2 construct: FhuC, ATPase subunit, Escherichia coli; as in Dm2; FhuB, membrane subunit, Escherichia coli, 660 residues; Mutant made on the FhuCB-pET15b construct by direct mutagenesis; source: E. coli BL21(DE3) C43, purified (TALON, Superose 6 gel filtration) in LMNG; not shown: His-tag, N-terminal, kept; copies: 2 + 1
T2 sequence (looked up) 1: T1 sequence (looked up) 1
T2 sequence (looked up) 2: T1 sequence (looked up) 2 with S57A, A390R

In another assay the target is T3, FhuCB with FhuB E304A (Escherichia coli, UniProt P07821 1-265; P06972 1-660, E304A, red-tris-NTA 2nd generation dye on the His-tag).
T3 construct: FhuC, ATPase subunit, Escherichia coli; as in Dm2; FhuB, membrane subunit, Escherichia coli, 660 residues; Mutant made on the FhuCB-pET15b construct by direct mutagenesis; source: E. coli BL21(DE3) C43, purified (TALON, Superose 6 gel filtration) in LMNG; not shown: His-tag, N-terminal, kept; copies: 2 + 1
T3 sequence (looked up) 1: T1 sequence (looked up) 1
T3 sequence (looked up) 2: T1 sequence (looked up) 2 with E304A, A390R

Numbering of substitutions follows the chain as printed.

B1: FhuD (natural protein, Escherichia coli)
chain: AAIDPNRIVALEWLPVELLLALGIVPYGVADTINYRLWVSEPPLPDSVIDVGLRTEPNLELLTEMKPSFMVWSAGYGPSPEMLARIAPGRGFNFSDGKQPLAMARKSLTEMADLLNLQSAAETHLAQYEDFIRSMKPRFVKRGARPLLLTTLIDPRHMLVFGPNSLFQEILDEYGIPNAWQGETNFWGSTAVSIDRLAAYKDVDVLCFDHDNSKDMDALMATPLWQAMPFVRAGRFQRVPAVWFYGATLSAMHFVRVLDNAIGGKA
notes: In 'FhuD-ferrichrome' the protein was loaded with the small molecule ferrichrome; also called FhuD-ferrichrome (when loaded with ferrichrome)
Turning to B1, the Kd with FhuCB with FhuB R390A was 75.8 nM; in the assay with FhuCB with FhuB S57A it was 88.4 nM; with FhuCB with FhuB E304A, 15.1 nM.
